For assay [1], the target named is native SERCA1a in DDM-solubilized rabbit sarco-endoplasmic reticulum membranes (rabbit) (UniProt P04191).
Assay [2] deals with recombinant wild-type rabbit SERCA1a (sarco-endoplasmic reticulum Ca2+-ATPase, isoform 1a) expressed in S. cerevisiae (rabbit) (UniProt P04191).
In assay [3] the target is native SERCA1a in DDM-solubilized rabbit sarco-endoplasmic reticulum membranes (rabbit) (UniProt P04191). This is another data set of the same source.
The target of assay [4] is recombinant wild-type rabbit SERCA1a (sarco-endoplasmic reticulum Ca2+-ATPase, isoform 1a) expressed in S. cerevisiae (rabbit) (UniProt P04191). This is another data set of the same source.

recombinant wild-type rabbit SERCA1a (sarco-endoplasmic reticulum Ca2+-ATPase, isoform 1a) expressed in S. cerevisiae (rabbit), sequence (P04191 other isoform, or with tags, fused parts or gaps): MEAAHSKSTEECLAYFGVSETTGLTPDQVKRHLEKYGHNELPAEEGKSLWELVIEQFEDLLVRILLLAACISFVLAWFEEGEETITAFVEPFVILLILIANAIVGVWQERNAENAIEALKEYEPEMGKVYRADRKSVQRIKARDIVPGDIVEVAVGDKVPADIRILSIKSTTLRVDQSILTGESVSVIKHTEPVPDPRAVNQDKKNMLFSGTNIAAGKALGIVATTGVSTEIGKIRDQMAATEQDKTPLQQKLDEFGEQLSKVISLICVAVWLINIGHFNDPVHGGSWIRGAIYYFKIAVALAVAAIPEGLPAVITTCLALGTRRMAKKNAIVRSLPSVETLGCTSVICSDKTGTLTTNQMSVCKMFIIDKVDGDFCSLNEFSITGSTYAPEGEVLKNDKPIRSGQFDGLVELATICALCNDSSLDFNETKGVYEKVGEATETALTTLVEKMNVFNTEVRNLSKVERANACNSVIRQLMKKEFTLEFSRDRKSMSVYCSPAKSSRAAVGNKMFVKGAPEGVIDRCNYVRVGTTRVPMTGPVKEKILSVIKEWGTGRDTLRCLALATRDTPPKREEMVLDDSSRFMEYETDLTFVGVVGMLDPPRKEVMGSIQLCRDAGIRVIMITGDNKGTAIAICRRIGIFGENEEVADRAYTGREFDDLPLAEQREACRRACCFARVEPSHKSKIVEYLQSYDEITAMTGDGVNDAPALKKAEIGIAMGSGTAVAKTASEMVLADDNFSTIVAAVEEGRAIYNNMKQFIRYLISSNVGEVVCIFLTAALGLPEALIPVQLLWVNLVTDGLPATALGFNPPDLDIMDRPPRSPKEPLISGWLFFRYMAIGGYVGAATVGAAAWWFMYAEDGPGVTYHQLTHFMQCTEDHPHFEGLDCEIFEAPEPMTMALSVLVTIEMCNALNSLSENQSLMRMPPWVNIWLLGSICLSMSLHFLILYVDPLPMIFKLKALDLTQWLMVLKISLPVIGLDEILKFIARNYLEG
native SERCA1a in DDM-solubilized rabbit sarco-endoplasmic reticulum membranes (rabbit), sequence (P04191 other isoform, or with tags, fused parts or gaps): as above

With “chemically synthesized S-palmitoylated rabbit sarcolipin (peptide)”, the IC50 of inhibition of the phosphoenzyme level, as told in the discussion (mol added SLN/mole of SERCA1a) in assay [1] came out at 5.6. For the same substance, the IC50 of inhibition of the phosphoenzyme level, as told in the discussion (mol of added SLN/mole of SERCA1a) in assay [2] is 5. In assay [3], the SLN:SERCA1a ratio at half-inhibition of the phosphoenzyme level (ratios 1:1 to 1:50) (mol SLN added per mole of SERCA1a) came to 5.9 and the amplitude of the inhibition of the phosphoenzyme level (dose-response fit) came to 28.1%. Moreover, in assay [4], the SLN:SERCA1a ratio at half-inhibition of the phosphoenzyme level (ratios 1:1 to 1:50) (mol SLN added per mole of SERCA1a) stood at 5.1; the amplitude of the inhibition of the phosphoenzyme level (dose-response fit) is 31.2%; the t1/2 of phosphorylation from [γ32P]ATP starting from a calcium-deprived state, Sarcolipin:SERCA1a 10:1 (6.8 without SLN) amounted to 13.5 s.

With “chemically synthesized non-palmitoylated rabbit sarcolipin (peptide)”, in assay [1], the IC50 of inhibition of the phosphoenzyme level, as told in the discussion (mol added SLN/mole of SERCA1a) turned out to be 2.9. Also, the IC50 of inhibition of the phosphoenzyme level, as told in the discussion (mol of added SLN/mole of SERCA1a) in assay [2] stood at 4.5. Besides, in assay [3], the SLN:SERCA1a ratio at half-inhibition of the phosphoenzyme level (ratios 1:1 to 1:50) (mol SLN added per mole of SERCA1a) worked out at 3.1 and the amplitude of the inhibition of the phosphoenzyme level (dose-response fit) was found to be 19%. In assay [4], the SLN:SERCA1a ratio at half-inhibition of the phosphoenzyme level (ratios 1:1 to 1:50) (mol SLN added per mole of SERCA1a) is 4.7; the amplitude of the inhibition of the phosphoenzyme level (dose-response fit) came out at 28.6%; the t1/2 of phosphorylation from [γ32P]ATP starting from a calcium-deprived state, Sarcolipin:SERCA1a 10:1 (6.8 without SLN) is 13.7 s.

The values are drawn from PMC7810697, “Sarcolipin alters SERCA1a interdomain communication by impairing binding of both calcium and ATP” (Scientific Reports, 2021).
